Reference: the supplement of paper PMC10724198

Experiments:
[1] = test system: Saccharomyces cerevisiae; test: protein stability index of tFT-peptide fusion in deletion strain of DAS1 (PSI (0-1 scale)); higher = more stable (slower turnover)
Method: (§1)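 MPS profiling in S. cerevisiae of two library types built from selected 12-aa C-degron peptides (IN1, IN2, LN1, LN3, VN2, R1-R5, W1-W3, Atg1 and Rpa12 C-termini): saturation mutagenesis libraries and C-terminal +1 capping libraries (13 aa). Each peptide is fused to the C-terminus of a sfGFP-mCherry timer, after a GGGS linker. Cells are FACS-sorted into 8 mCherry/sfGFP bins and sequenced. PSI runs from 0 (unstable) to 1 (stable), measured once in wild type and in the das1Δ or doa10Δ background.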

[2] = test system: Saccharomyces cerevisiae; test: protein stability index of tFT-peptide fusion in wild type (PSI (0-1 scale)); higher = more stable (slower turnover); conditions: genetic background: wild type
Method: as §1
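For protein stability index of tFT-peptide fusion in deletion strain of DAS1 in this document: PSI is a weighted mean of each variant's read distribution over the sorted stability bins, computed only for variants having over 10 reads in total.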
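For protein stability index of tFT-peptide fusion in wild type in this document: PSI derived as read-weighted mean over the 8 sorting bins, only variants exceeding 10 total reads kept, mCherry placed adjacent to the peptide and sfGFP distal.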

Q: Which protein stability index [1] does the source give for PDKRNHLIKLMN here?
A: Its protein stability index is 0.605.

Q: And the protein stability index [2]?
A: The protein stability index was 0.119.

Q: How did the protein stability index [1] turn out when PDKRNHLIKMLN was run?
A: The protein stability index was 0.598.

Q: What about the protein stability index [2] of the same sequence?
A: Its protein stability index is 0.0821.

Q: With PDKRNHLIKWLN as the sequence, how does the protein stability index [1] read?
A: The protein stability index was 0.694.

Q: And the protein stability index [2]?
A: Its protein stability index is 0.182.

Q: Which protein stability index [1] does the source give for PDKRNHLPKLLN here?
A: Its protein stability index is 0.612.

Q: And the protein stability index [2]?
A: The protein stability index was 0.148.

Q: What does the source list for PDKRNHLSKLLN?
A: protein stability index [1]: 0.659; protein stability index [2]: 0.136

Q: Which protein stability index [1] does the source give for PDKRNHLVKLLN here?
A: The protein stability index was 0.585.

Q: What about the protein stability index [2] of the same sequence?
A: The protein stability index was 0.133.

Q: Which results are given for PDKRNHLYKLLN?
A: protein stability index [1]: 0.598; protein stability index [2]: 0.196

Q: How did the protein stability index [1] turn out when PDKRNPLIKLLN was run?
A: The protein stability index was 0.581.

Q: What about the protein stability index [2] of the same sequence?
A: Its protein stability index is 0.42.

Q: PDKRVHLIKLLN was tested. Which protein stability index [1] did it give?
A: The protein stability index was 0.61.

Q: And the protein stability index [2]?
A: Its protein stability index is 0.128.

Q: What does the source list for PEKRNHLIKLLN?
A: protein stability index [1]: 0.608; protein stability index [2]: 0.101

Q: How did the protein stability index [1] turn out when PKILRQKMNHQN was run?
A: Its protein stability index is 0.678.

Q: And the protein stability index [2]?
A: Its protein stability index is 0.194.

Q: With PKLAASFWRVVG as the sequence, how does the protein stability index [1] read?
A: The protein stability index was 0.691.

Q: What about the protein stability index [2] of the same sequence?
A: The protein stability index was 0.172.

Q: For PLLAASFWRVVG, which protein stability index [1] is on record?
A: Its protein stability index is 0.678.

Q: And the protein stability index [2]?
A: Its protein stability index is 0.157.

Q: For PMLAASFWRVVG, which protein stability index [1] is on record?
A: The protein stability index was 0.702.

Q: And the protein stability index [2]?
A: Its protein stability index is 0.162.

Q: With PSKAASFWRVVG as the sequence, how does the protein stability index [1] read?
A: The protein stability index was 0.686.

Q: What about the protein stability index [2] of the same sequence?
A: Its protein stability index is 0.139.

Q: How did the protein stability index [1] turn out when PSKRNHLIKLLN was run?
A: The protein stability index was 0.61.

Q: What about the protein stability index [2] of the same sequence?
A: Its protein stability index is 0.145.

Q: Which results are given for PSLAAFFWRVVG?
A: protein stability index [1]: 0.691; protein stability index [2]: 0.13

Q: Which protein stability index [1] does the source give for PSLAAMFWRVVG here?
A: Its protein stability index is 0.691.

Q: What about the protein stability index [2] of the same sequence?
A: The protein stability index was 0.137.

Q: How did the protein stability index [1] turn out when PSLAARFWRVVG was run?
A: The protein stability index was 0.679.

Q: And the protein stability index [2]?
A: The protein stability index was 0.14.

Q: With PSLAASFDRVVG as the sequence, how does the protein stability index [1] read?
A: The protein stability index was 0.684.

Q: And the protein stability index [2]?
A: Its protein stability index is 0.644.

Q: Which protein stability index [1] does the source give for PSLAASFGRVVG here?
A: Its protein stability index is 0.672.

Q: What about the protein stability index [2] of the same sequence?
A: Its protein stability index is 0.661.

Q: With PSLAASFKRVVG as the sequence, how does the protein stability index [1] read?
A: The protein stability index was 0.677.

Q: And the protein stability index [2]?
A: Its protein stability index is 0.683.

Q: For PSLAASFWNVVG, which protein stability index [1] is on record?
A: Its protein stability index is 0.69.

Q: What about the protein stability index [2] of the same sequence?
A: The protein stability index was 0.331.

Q: With PSLAASFWRFVG as the sequence, how does the protein stability index [1] read?
A: Its protein stability index is 0.707.

Q: And the protein stability index [2]?
A: The protein stability index was 0.137.

Q: Which results are given for PSLAASFWRNVG?
A: protein stability index [1]: 0.7; protein stability index [2]: 0.17

Q: PSLAASFWRVFG was tested. Which protein stability index [1] did it give?
A: Its protein stability index is 0.699.

Q: What about the protein stability index [2] of the same sequence?
A: The protein stability index was 0.367.

Q: Which results are given for PSLAASFWRVKG?
A: protein stability index [1]: 0.664; protein stability index [2]: 0.549

Q: PSLAASFWRVMG was tested. Which protein stability index [1] did it give?
A: The protein stability index was 0.664.

Q: What about the protein stability index [2] of the same sequence?
A: Its protein stability index is 0.144.

Q: Which results are given for PSLAASFWRVVE?
A: protein stability index [1]: 0.696; protein stability index [2]: 0.684

Q: With PSLAASFWRVVGN as the sequence, how does the protein stability index [1] read?
A: The protein stability index was 0.689.

Q: What about the protein stability index [2] of the same sequence?
A: Its protein stability index is 0.651.

Q: Which protein stability index [1] does the source give for PSLAASFWRVVGV here?
A: The protein stability index was 0.685.

Q: What about the protein stability index [2] of the same sequence?
A: Its protein stability index is 0.674.

Q: PSLAASFWRVVL was tested. Which protein stability index [1] did it give?
A: Its protein stability index is 0.724.

Q: What about the protein stability index [2] of the same sequence?
A: The protein stability index was 0.617.

Q: How did the protein stability index [1] turn out when PSLAASFWRVVM was run?
A: Its protein stability index is 0.743.

Q: And the protein stability index [2]?
A: Its protein stability index is 0.282.

Q: With PSLAASFWRVVQ as the sequence, how does the protein stability index [1] read?
A: Its protein stability index is 0.711.

Q: What about the protein stability index [2] of the same sequence?
A: Its protein stability index is 0.252.

Q: PSLAASFWRVVT was tested. Which protein stability index [1] did it give?
A: The protein stability index was 0.693.

Q: And the protein stability index [2]?
A: The protein stability index was 0.147.

Q: PSLAASFWRYVG was tested. Which protein stability index [1] did it give?
A: Its protein stability index is 0.657.

Q: And the protein stability index [2]?
A: Its protein stability index is 0.134.

Q: How did the protein stability index [1] turn out when PSLAQSFWRVVG was run?
A: Its protein stability index is 0.699.

Q: What about the protein stability index [2] of the same sequence?
A: Its protein stability index is 0.188.

Q: For PSLIASFWRVVG, which protein stability index [1] is on record?
A: Its protein stability index is 0.672.

Q: And the protein stability index [2]?
A: The protein stability index was 0.12.

Q: PSLQASFWRVVG was tested. Which protein stability index [1] did it give?
A: The protein stability index was 0.633.

Q: What about the protein stability index [2] of the same sequence?
A: Its protein stability index is 0.111.

Q: How did the protein stability index [1] turn out when PSLYASFWRVVG was run?
A: The protein stability index was 0.674.

Q: And the protein stability index [2]?
A: Its protein stability index is 0.0956.

Q: RGIQPLPVQFLN was tested. Which protein stability index [1] did it give?
A: Its protein stability index is 0.581.

Q: What about the protein stability index [2] of the same sequence?
A: Its protein stability index is 0.112.

Q: Which results are given for RLDQPLPVQFLN?
A: protein stability index [1]: 0.808; protein stability index [2]: 0.0831

Q: Which results are given for RLGQPLPVQFLN?
A: protein stability index [1]: 0.611; protein stability index [2]: 0.0875

Q: Which protein stability index [1] does the source give for RLIQPIPVQFLN here?
A: Its protein stability index is 0.597.

Q: And the protein stability index [2]?
A: The protein stability index was 0.0323.

Q: Which protein stability index [1] does the source give for RLIQPKPVQFLN here?
A: The protein stability index was 0.586.

Q: And the protein stability index [2]?
A: Its protein stability index is 0.0691.
